Assay results published in paper PMC9371974 (Nature Structural & Molecular Biology, 2022).

Columns and labels:
Settings in all cases: both partners purified
[1] = biological target: recombinant mouse prion protein immobilised for SPR (mPrP) (Mus musculus, UniProt P04925); assay: SPR
[2] = biological target: full-length, recombinant mouse prion protein (rmPrP23-231) (Mus musculus, UniProt P04925); assay: FRET or BRET
[3] = biological target: mPrP immobilized on the SPR sensor chip (rmPrP) (Mus musculus, UniProt P04925); assay: SPR
Sequence of mPrP immobilized on the SPR sensor chip (rmPrP) (P04925 23-230): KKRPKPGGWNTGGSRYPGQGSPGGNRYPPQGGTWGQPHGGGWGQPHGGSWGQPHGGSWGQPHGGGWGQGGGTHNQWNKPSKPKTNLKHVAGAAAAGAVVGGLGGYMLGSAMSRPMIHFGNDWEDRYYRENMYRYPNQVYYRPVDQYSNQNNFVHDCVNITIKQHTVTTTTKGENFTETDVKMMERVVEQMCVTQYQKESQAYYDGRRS

Sequence of recombinant mouse prion protein immobilised for SPR (mPrP) (P04925 23-230): as above
Sequence of full-length, recombinant mouse prion protein (rmPrP23-231) (P04925 23-231): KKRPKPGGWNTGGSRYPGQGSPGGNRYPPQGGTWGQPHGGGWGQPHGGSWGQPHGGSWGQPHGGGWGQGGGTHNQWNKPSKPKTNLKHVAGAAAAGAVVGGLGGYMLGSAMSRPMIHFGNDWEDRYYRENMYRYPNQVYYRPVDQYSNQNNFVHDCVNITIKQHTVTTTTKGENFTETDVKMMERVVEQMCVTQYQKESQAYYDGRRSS

| Binder | Kd [1] [nM] | koff [1] [s⁻¹] | kon [1] [M⁻¹ s⁻¹] | Kd [2] [nM] | Kd [3] [nM] |
| --- | --- | --- | --- | --- | --- |
| pomolog hcY57A (POM1 scFv, heavy chain Y57A) (scFv, V domains shown) VH: QVQLQQSGTELVMPGASVKMSCKASGYTFTDYWMHWVKQRPGQGLEWIGSIDPSDSATSHNEKFKGKATLTVDESSSTAYMQLSSLTSEDSAVYFCSRSGYGYYAMEYWGQGTSVTVSS VL: DIVLTQSPAILSVSPGERVSFSCRASQNIGTSIHWYQQRTNESPRLIIKYASESISGIPSRFSGSGSGTDFTLSINSVESEDIADYYCQQSNTWPYTFGGGTKLELK | 406 | 0.031 | 77000 |  |  |
| POM1 scFv pomolog hcY104A (scFv, V domains shown) VH: QVQLQQSGTELVMPGASVKMSCKASGYTFTDYWMHWVKQRPGQGLEWIGSIDPSDSYTSHNEKFKGKATLTVDESSSTAYMQLSSLTSEDSAVYFCSRSGYGYAAMEYWGQGTSVTVSS VL: DIVLTQSPAILSVSPGERVSFSCRASQNIGTSIHWYQQRTNESPRLIIKYASESISGIPSRFSGSGSGTDFTLSINSVESEDIADYYCQQSNTWPYTFGGGTKLELK |  |  |  | 26 | 8.79 |
| POM1 scFv pomolog lcS32A (scFv, V domains shown) VH: QVQLQQSGTELVMPGASVKMSCKASGYTFTDYWMHWVKQRPGQGLEWIGSIDPSDSYTSHNEKFKGKATLTVDESSSTAYMQLSSLTSEDSAVYFCSRSGYGYYAMEYWGQGTSVTVSS VL: DIVLTQSPAILSVSPGERVSFSCRASQNIGTAIHWYQQRTNESPRLIIKYASESISGIPSRFSGSGSGTDFTLSINSVESEDIADYYCQQSNTWPYTFGGGTKLELK |  |  |  | 7.3 | 9.98 |
| POM1 scFv pomolog hcD52A (scFv, V domains shown) VH: QVQLQQSGTELVMPGASVKMSCKASGYTFTDYWMHWVKQRPGQGLEWIGSIAPSDSYTSHNEKFKGKATLTVDESSSTAYMQLSSLTSEDSAVYFCSRSGYGYYAMEYWGQGTSVTVSS VL: DIVLTQSPAILSVSPGERVSFSCRASQNIGTSIHWYQQRTNESPRLIIKYASESISGIPSRFSGSGSGTDFTLSINSVESEDIADYYCQQSNTWPYTFGGGTKLELK |  |  |  | 14.2 | 103 |
| POM1 scFv pomolog lcY50A (scFv, V domains shown) VH: QVQLQQSGTELVMPGASVKMSCKASGYTFTDYWMHWVKQRPGQGLEWIGSIDPSDSYTSHNEKFKGKATLTVDESSSTAYMQLSSLTSEDSAVYFCSRSGYGYYAMEYWGQGTSVTVSS VL: DIVLTQSPAILSVSPGERVSFSCRASQNIGTSIHWYQQRTNESPRLIIKAASESISGIPSRFSGSGSGTDFTLSINSVESEDIADYYCQQSNTWPYTFGGGTKLELK |  |  |  | 63.4 | 313 |
| POM1 scFv pomolog hcY101A (scFv, V domains shown) VH: QVQLQQSGTELVMPGASVKMSCKASGYTFTDYWMHWVKQRPGQGLEWIGSIDPSDSYTSHNEKFKGKATLTVDESSSTAYMQLSSLTSEDSAVYFCSRSGAGYYAMEYWGQGTSVTVSS VL: DIVLTQSPAILSVSPGERVSFSCRASQNIGTSIHWYQQRTNESPRLIIKYASESISGIPSRFSGSGSGTDFTLSINSVESEDIADYYCQQSNTWPYTFGGGTKLELK |  |  |  | 1.5 | 11.5 |
| POM1 scFv pomolog hcY57A (scFv, V domains shown) VH: QVQLQQSGTELVMPGASVKMSCKASGYTFTDYWMHWVKQRPGQGLEWIGSIDPSDSATSHNEKFKGKATLTVDESSSTAYMQLSSLTSEDSAVYFCSRSGYGYYAMEYWGQGTSVTVSS VL: DIVLTQSPAILSVSPGERVSFSCRASQNIGTSIHWYQQRTNESPRLIIKYASESISGIPSRFSGSGSGTDFTLSINSVESEDIADYYCQQSNTWPYTFGGGTKLELK |  |  |  | 225 | 406 |
| POM1 scFv pomolog lcW94A (scFv, V domains shown) VH: QVQLQQSGTELVMPGASVKMSCKASGYTFTDYWMHWVKQRPGQGLEWIGSIDPSDSYTSHNEKFKGKATLTVDESSSTAYMQLSSLTSEDSAVYFCSRSGYGYYAMEYWGQGTSVTVSS VL: DIVLTQSPAILSVSPGERVSFSCRASQNIGTSIHWYQQRTNESPRLIIKYASESISGIPSRFSGSGSGTDFTLSINSVESEDIADYYCQQSNTAPYTFGGGTKLELK |  |  |  | 73.1 | 201 |
| pomolog hcD52A (POM1 scFv, heavy chain D52A) (scFv, V domains shown) VH: QVQLQQSGTELVMPGASVKMSCKASGYTFTDYWMHWVKQRPGQGLEWIGSIAPSDSYTSHNEKFKGKATLTVDESSSTAYMQLSSLTSEDSAVYFCSRSGYGYYAMEYWGQGTSVTVSS VL: DIVLTQSPAILSVSPGERVSFSCRASQNIGTSIHWYQQRTNESPRLIIKYASESISGIPSRFSGSGSGTDFTLSINSVESEDIADYYCQQSNTWPYTFGGGTKLELK | 103 | 0.046 | 330000 |  |  |
| pomolog lcY96A (POM1 scFv, light chain Y96A) (scFv, V domains shown) VH: QVQLQQSGTELVMPGASVKMSCKASGYTFTDYWMHWVKQRPGQGLEWIGSIDPSDSYTSHNEKFKGKATLTVDESSSTAYMQLSSLTSEDSAVYFCSRSGYGYYAMEYWGQGTSVTVSS VL: DIVLTQSPAILSVSPGERVSFSCRASQNIGTSIHWYQQRTNESPRLIIKYASESISGIPSRFSGSGSGTDFTLSINSVESEDIADYYCQQSNTWPATFGGGTKLELK | 123 | 0.0074 | 62000 |  |  |
| pomolog hcD55A (POM1 scFv, heavy chain D55A) (scFv, V domains shown) VH: QVQLQQSGTELVMPGASVKMSCKASGYTFTDYWMHWVKQRPGQGLEWIGSIDPSASYTSHNEKFKGKATLTVDESSSTAYMQLSSLTSEDSAVYFCSRSGYGYYAMEYWGQGTSVTVSS VL: DIVLTQSPAILSVSPGERVSFSCRASQNIGTSIHWYQQRTNESPRLIIKYASESISGIPSRFSGSGSGTDFTLSINSVESEDIADYYCQQSNTWPYTFGGGTKLELK | 372 | 0.037 | 100000 |  |  |
| pomolog lcY50A (POM1 scFv, light chain Y50A) (scFv, V domains shown) VH: QVQLQQSGTELVMPGASVKMSCKASGYTFTDYWMHWVKQRPGQGLEWIGSIDPSDSYTSHNEKFKGKATLTVDESSSTAYMQLSSLTSEDSAVYFCSRSGYGYYAMEYWGQGTSVTVSS VL: DIVLTQSPAILSVSPGERVSFSCRASQNIGTSIHWYQQRTNESPRLIIKAASESISGIPSRFSGSGSGTDFTLSINSVESEDIADYYCQQSNTWPYTFGGGTKLELK | 313 | 0.0082 | 57000 |  |  |
| POM1 scFv pomolog lcY96A (scFv, V domains shown) VH: QVQLQQSGTELVMPGASVKMSCKASGYTFTDYWMHWVKQRPGQGLEWIGSIDPSDSYTSHNEKFKGKATLTVDESSSTAYMQLSSLTSEDSAVYFCSRSGYGYYAMEYWGQGTSVTVSS VL: DIVLTQSPAILSVSPGERVSFSCRASQNIGTSIHWYQQRTNESPRLIIKYASESISGIPSRFSGSGSGTDFTLSINSVESEDIADYYCQQSNTWPATFGGGTKLELK |  |  |  | 138 | 123 |
| pomolog lcW94A (POM1 scFv, light chain W94A) (scFv, V domains shown) VH: QVQLQQSGTELVMPGASVKMSCKASGYTFTDYWMHWVKQRPGQGLEWIGSIDPSDSYTSHNEKFKGKATLTVDESSSTAYMQLSSLTSEDSAVYFCSRSGYGYYAMEYWGQGTSVTVSS VL: DIVLTQSPAILSVSPGERVSFSCRASQNIGTSIHWYQQRTNESPRLIIKYASESISGIPSRFSGSGSGTDFTLSINSVESEDIADYYCQQSNTAPYTFGGGTKLELK | 201 | 0.027 | 310000 |  |  |
| pomolog lcS32A (POM1 scFv, light chain S32A) (scFv, V domains shown) VH: QVQLQQSGTELVMPGASVKMSCKASGYTFTDYWMHWVKQRPGQGLEWIGSIDPSDSYTSHNEKFKGKATLTVDESSSTAYMQLSSLTSEDSAVYFCSRSGYGYYAMEYWGQGTSVTVSS VL: DIVLTQSPAILSVSPGERVSFSCRASQNIGTAIHWYQQRTNESPRLIIKYASESISGIPSRFSGSGSGTDFTLSINSVESEDIADYYCQQSNTWPYTFGGGTKLELK | 10 | 0.00059 | 64000 |  |  |
| pomolog lcS91A (POM1 scFv, light chain S91A) (scFv, V domains shown) VH: QVQLQQSGTELVMPGASVKMSCKASGYTFTDYWMHWVKQRPGQGLEWIGSIDPSDSYTSHNEKFKGKATLTVDESSSTAYMQLSSLTSEDSAVYFCSRSGYGYYAMEYWGQGTSVTVSS VL: DIVLTQSPAILSVSPGERVSFSCRASQNIGTSIHWYQQRTNESPRLIIKYASESISGIPSRFSGSGSGTDFTLSINSVESEDIADYYCQQANTWPYTFGGGTKLELK | 1430 | 0.018 | 13000 |  |  |
| POM1 scFv pomolog lcS91A (scFv, V domains shown) VH: QVQLQQSGTELVMPGASVKMSCKASGYTFTDYWMHWVKQRPGQGLEWIGSIDPSDSYTSHNEKFKGKATLTVDESSSTAYMQLSSLTSEDSAVYFCSRSGYGYYAMEYWGQGTSVTVSS VL: DIVLTQSPAILSVSPGERVSFSCRASQNIGTSIHWYQQRTNESPRLIIKYASESISGIPSRFSGSGSGTDFTLSINSVESEDIADYYCQQANTWPYTFGGGTKLELK |  |  |  | 92.3 | 1430 |
| POM1 scFv pomolog hcD55A (scFv, V domains shown) VH: QVQLQQSGTELVMPGASVKMSCKASGYTFTDYWMHWVKQRPGQGLEWIGSIDPSASYTSHNEKFKGKATLTVDESSSTAYMQLSSLTSEDSAVYFCSRSGYGYYAMEYWGQGTSVTVSS VL: DIVLTQSPAILSVSPGERVSFSCRASQNIGTSIHWYQQRTNESPRLIIKYASESISGIPSRFSGSGSGTDFTLSINSVESEDIADYYCQQSNTWPYTFGGGTKLELK |  |  |  | 110 | 372 |
| pomolog hcY101A (POM1 scFv, heavy chain Y101A) (scFv, V domains shown) VH: QVQLQQSGTELVMPGASVKMSCKASGYTFTDYWMHWVKQRPGQGLEWIGSIDPSDSYTSHNEKFKGKATLTVDESSSTAYMQLSSLTSEDSAVYFCSRSGAGYYAMEYWGQGTSVTVSS VL: DIVLTQSPAILSVSPGERVSFSCRASQNIGTSIHWYQQRTNESPRLIIKYASESISGIPSRFSGSGSGTDFTLSINSVESEDIADYYCQQSNTWPYTFGGGTKLELK | 11 | 0.00071 | 63000 |  |  |
| pomolog hcY104A (POM1 scFv, heavy chain Y104A) (scFv, V domains shown) VH: QVQLQQSGTELVMPGASVKMSCKASGYTFTDYWMHWVKQRPGQGLEWIGSIDPSDSYTSHNEKFKGKATLTVDESSSTAYMQLSSLTSEDSAVYFCSRSGYGYAAMEYWGQGTSVTVSS VL: DIVLTQSPAILSVSPGERVSFSCRASQNIGTSIHWYQQRTNESPRLIIKYASESISGIPSRFSGSGSGTDFTLSINSVESEDIADYYCQQSNTWPYTFGGGTKLELK | 8.8 | 0.00021 | 36000 |  |  |
